Laboratory results reported in patent US20030135880A1, “Compositions and methods for halogenation reactions” (priority 2002, published 2003).
Where two headings read alike, the source gives them in different places.

B1: cytochrome b5 reductase: Recombinant soluble domain of rat hepatic cytochrome b5 reductase (protein, listed as Rattus norvegicus)
chain: MGAQLSTLSRVVLSPVWFVYSLFMKLFQRSSPAITLENPDIKYPLRLIDKEIISHDTRRFRFALPSPQHILGLPIGQHIYLSTRIDGNLVIRPYTPVSSDDDKGLVDLVVKVYFKDTHPKFPAGGKMSQYLENMNIGDTIEFRGPNGLLVYQGKGKFAIRADKKSNPVVRTVKSVGMIAGGTGITPMLQVIRAVLKDPNDHTVCYLLFANQSEKDILLRPELEELRNEHSSRFKLWYTVDKAPDAWDYSQGFVNEEMIRDHLPPPGEETLILMCGPPPMIQFACLPNLERVGHPKERCFTF
B2: Fre: E. coli flavin reductase (SEQ ID NO: 19), purified electron transferase (protein, listed as Escherichia coli)
chain: MTTLSCKVTSVEAITDTVYRVRIVPDAAFSFRAGQYLMVVMDERDKRPFSMASTPDEKGFIELHIGASEINLYAKAVMDRILKDHQIVVDIPHGEAWLRDDEERPMILIAGGTGFSYARSILLTALARNPNRDITIYWGGREEQHLYDLCELEALSLKHPGLQVVPVVEQPEAGWRGRTGTVLTAVLQDHGTLAEHDIYIAGRFEMAKIARDLFCSERNAREDRLFGDAFAFI
B3: NAD(P)H:FMN reductase: Photobacterium fischeri NAD(P)H:FMN reductase purchased from Roche (protein, listed as Vibrio fischeri)
chain: MPINCKVKSIEPLACNTFRILLHPEQPVAFKAGQYLTVVMGEKDKRPFSIASSPCRHEGEIELHIGAAEHNAYAGEVVESMKSALETGGDILIDAPHGEAWIREDSDRSMLLIAGGTGFSYVRSILDHCISQQIQKPIYLYWGGRDECQLYAKAELESIAQAHSHITFVPVVEKSEGWTGKTGNVLEAVKADFNSLADMDIYIAGRFEMAGAAREQFTTEKQAKKEQLFGDAFAFI
B4: NADPH-cyt-P450 reductase: Rabbit liver NADPH-cyt-P450 reductase purchased from Sigma Chemical Co. (protein, listed as Oryctolagus cuniculus)
chain: LINMADSHGDTGATMPEAAAQEASVFSMTDVVLFSLIVGLITYWFLFRKKKEEVPEFTKIQAPTSSSVKESSFVEKMKKTGRNIVVFYGSQTGTAEEFANRLSKDAHRYGMRGMAADPEEYDLADLSSLPEINNALAVFCMATYGEGDPTDNAQDFYDWLQETDVDLSGVKYAVFGLGNKTYEHFNAMGKYVDQRLEQLGAQRIFELGMGDDDANLEEDFITWREQFWPAVCEHFGVEATGEESSIRQYELVLHTDIDVAKVYQGEMGRLKSYENQKPPFDAKNPFLATVTTNRKLNQGTERHLMHLELDISDSKIRYESGDHVAVYPANDSALVNQLGEILGADLDVVMSLNNLDEESNKKHPFPCPTSYRTALTYYLDITNPPRTNVLYELAQYAADPAEQEQLRKMASSSGEGKELYLSWVVEARRHILAILQDYPSLRPPIDHLCELLPRLQARYYSIASSSKVHPNSVHICAVAVEYETKAGRLNKGVATSWLRAKEPAGENGGRALVPMFVRKSQFRLPFKATTPVIMVGPGTGVAPFIGFIQERAWLRQQGKEVGETLLYYGCRRAAEDYLYREELAGFQKDGTLSQLNVAFSREQAQKVYVQHLLRRDKEHLWRLIHEGGAHIYVCGDARNMARDVQNTFYDIVAELGAMEHAQAVDYVKKLMTKGRYSLDVWS
B5: FNR: Spinach ferredoxin NADP reductase (protein, UniProt P00455 56-369, looked up)
Ferredoxin--NADP reductase, …: QIASDVEAPPPAPAKVEKHSKKMEEGITVNKFKPKTPYVGRCLLNTKITGDDAPGETWHMVFSHEGEIPYREGQSVGVIPDGEDKNGKPHKLRLYSIASSALGDFGDAKSVSLCVKRLIYTNDAGETIKGVCSNFLCDLKPGAEVKLTGPVGKEMLMPKDPNATIIMLGTGTGIAPFRSFLWKMFFEKHDDYKFNGLAWLFLGVPTSSSLLYKEEFEKMKEKAPDNFRLDFAVSREQTNEKGEKMYIQTRMAQYAVELWEMLKKDNTYFYMCGLKGMEKGIDDIMVSLAAAEGIDWIEYKRQLKKAEQWNVEVY

Assays:
PrnA [1] = molecular target: T1, PrnA (Pseudomonas fluorescens, UniProt P95480); type: biochemical; set-up: made in house; host or cells: Pseudomonas fluorescens BL915deltaORF1-4 with plasmid pPEH14 (prnA); conditions: 20 microliter PrnA, 20 microliter electron transferase, 20.5 hours, room temperature, triplicate
Method: Protein concentration or the preparation is 0.36 mg/ml.
Either a NADH dependent mixture or a NADPH mixture is used as indicated below. An NADH-dependent assay mixture is prepared by adding 12 mg of NADH to 4.5 ml of above described assay mixture. A NADPH-dependent assay mixture is prepared by adding 3 mg NADPH to 1 ml of the above described assay mixture.
The reactions 1-7, described below, are set up in polypropylene tubes in triplicate. After mixing PrnA, the indicated assay mixture and electron transferase, samples are vortexed, then mixed by inversion at room temperature. […] The HPLC analysis is by Method Set PrnA1 (described below), the injection volume is 50 microliter, and data are collected for the first 6 minutes.
Standards are prepared by mixing 5 or 10 microliter 7-Cl-Trp (1 mM) with sufficient 50 mM HEPES, pH 7.5 to bring the final volume to 200 microliter. D-Trp is eluted at ˜2 min and 7-Cl-trp is eluted at 4.3 min, as indicated by the elution of the authentic D-Trp and 7-Cl-Trp. The quantity of 7-Cl-trp is determined by comparison to a standard curve. Reported activities are the net increase in 7-Cl-Trp after addition of the electron transferase.
A Waters Alliance HPLC system with photodiode array detector is used. The Waters Alliance HPLC is equipped with a 4.6×50 mm column packed with C18-Silica, particle size 3 micrometer. A gradient elution method designated here as PrnA1 is used. Flow rates are 1 ml/min throughout and absorbance data are collected from 210 to 400 nm with a resolution of 1.2 nm and a sampling rate of 1/s. The system as pre-equilibrated with an 85:15 mixture of water:methanol. After injection of the sample the column is developed with a 6 min gradient from the starting conditions to a 40:60 water:methanol mixture. Then from 6.0 to 7.0 min the concentration of methanol is increased to 100% in a linear gradient. The column is washed for 1 min with 100% methanol, then re-equilibrated. D-Trp eluted at ˜2 min and 7-Cl-trp eluted at 4.3 min, as indicated by the elution of authentic D-Trp and 7-Cl-Trp.

PrnA [2] = molecular target: T1, PrnA; test: Activation of PrnA by electron transferases, 2 h assay (Example 2); type: biochemical; set-up: made in house; host or cells: Pseudomonas fluorescens BL915deltaORF1-4 with plasmid pPEH14 (prnA); conditions: 20 microliter PrnA, 50 microliter NADH, 50 microliter electron transferase, room temperature
Method: The following components are used in examples 1-4 below: PrnA (described for Example 1 above) at 0.36 mg/ml, Assay Mixture containing HEPES (100 mM), glucose-6-phosphate, disodium salt (50 mM), D-Trp (5 mM), NaCl (5 mM). Aspergillus niger catalase (39 U/ml), bovine erythrocyte superoxide dismutase (15 U/ml), Leuconostoc mesenteroides glucose-6-phosphate dehydrogenase (10 U/ml). NADH-(3 mg/ml) NADPH (3 mg/ml).
Each assay contains the assay mixture, either NADH (for samples containing Fre and the NAD(P)H:FMN reductase) or NADPH (for samples containing FNR or FNR and Fd), PrnA and the indicated electron transferase. Negative control samples are incubated in parallel; these substituted buffer for PrnA. Quantification standards are prepared by diluting 0,1, 2 or 5 microliter of 7-Cl-Trp standard (1 mM) in 100 microliter Assay Mixture, 50 microliter NADH, 20 microliter PrnA and 50 microliter buffer; the tubes were heated to 100 C. prior to addition of PrnA, then heated an additional 2 min. Further processing is in parallel with the enzymatic reactions. All samples are mixed for 2 h at room temperature. Reactions are stopped and samples processed as described above in Example 1, including using the HPLC Analytical method PrnA1 as described in Example 1.

PrnC = molecular target: T2, PrnC (Pseudomonas fluorescens, UniProt P95482); test: In vitro halogenation with PrnC: chlorination of MDA to APRN (Example 3); type: biochemical, P. fluorescens; conditions: Extract #2 (PrnC depleted of P2) plus 20 microliter electron transferase, NADH, overnight
T2 construct: made in house; host or cells: P. fluorescens (pPEH/prnC/134Δprn), plasmid pPEH-PrnC with tac promoter
T2 sequence (P95482 whole entry, looked up): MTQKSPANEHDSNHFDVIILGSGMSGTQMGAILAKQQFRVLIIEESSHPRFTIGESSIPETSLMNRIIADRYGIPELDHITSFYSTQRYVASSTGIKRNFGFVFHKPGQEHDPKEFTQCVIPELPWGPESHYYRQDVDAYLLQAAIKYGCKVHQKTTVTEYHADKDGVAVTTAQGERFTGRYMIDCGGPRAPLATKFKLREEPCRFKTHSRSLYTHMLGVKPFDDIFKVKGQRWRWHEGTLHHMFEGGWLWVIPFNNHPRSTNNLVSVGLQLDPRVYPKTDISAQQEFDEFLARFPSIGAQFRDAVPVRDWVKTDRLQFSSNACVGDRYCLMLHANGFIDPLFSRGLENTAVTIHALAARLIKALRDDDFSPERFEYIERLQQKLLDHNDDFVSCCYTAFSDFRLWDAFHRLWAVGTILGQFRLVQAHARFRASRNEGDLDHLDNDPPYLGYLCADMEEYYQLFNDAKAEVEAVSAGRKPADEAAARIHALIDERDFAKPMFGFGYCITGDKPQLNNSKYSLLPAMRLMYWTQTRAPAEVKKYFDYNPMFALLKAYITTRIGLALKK
Method: Fre, ferrodoxin NADP reductase, ferrodoxin and NADPH FMN-reductase are tested for the ability to activate P. fluorescens PrnC that was depleted of endogenous electron transferase (P2) as described below. PrnC catalyzes chlorination of monodechloroaminopyrrolnitrin (MDA) to yield aminopyrrolnitrin (APRN).
The following materials are prepared for use in assays described below. Buffer 100 mM Tris/Cl, 1 mM EDTA. pH 7.5. Monodechloroaminopyrrolnitrin (MDA) 74.2 mM is prepared by culture of Pseudomonas fluorescens expressing PrnA and PrnB as described in (Kirner et al,1998) which is herein incorporated by reference in its entirety. The assay mix comprises FAD (5 μM) and MDA (742 μM) in buffer. NADH is dissolved in buffer at a concentration of 6 mg/ml. or NADPH is dissolved in buffer at a concentration of 6 mg/ml. Extract #1 is a crude extract in buffer containing PrnC and the endogenous electron transferase P2 described above in example 1. […]
The assays described below are run as follows; Extract #2 is mixed with the indicated electron transferase, assay mix and either NADH or NADPH as indicated. The native activity of PrnC prior to removal of the P2 activity is determined by a parallel sample in which extract #1 is mixed with assay mix and NADH. […] Samples are analyzed by PrnC_Iso method described below. The 220 nm absorbance chromatogram is analyzed and integrated. PrnC activity is expressed as 100 times the ratio of the APRN peak area to the sum of the peak areas of APRN and MDA. Assuming equal extinction coefficients at 220 nm the calculated ratio is equivalent to the net % conversion of MDA to APRN by halogenation.
HPLC Analytical method PrnC_Iso The HPLC instrument used is a Waters Alliance HPLC system with photodiode array detector and is equipped with a 4.6×50 mm column packed with C18-Silica, particle size 3 micrometer. […] Absorbance data are collected from 210 to 400 nm with a resolution of 2.4 nm and a sampling rate of 5/s. […]

T1 sequence (P95480 whole entry): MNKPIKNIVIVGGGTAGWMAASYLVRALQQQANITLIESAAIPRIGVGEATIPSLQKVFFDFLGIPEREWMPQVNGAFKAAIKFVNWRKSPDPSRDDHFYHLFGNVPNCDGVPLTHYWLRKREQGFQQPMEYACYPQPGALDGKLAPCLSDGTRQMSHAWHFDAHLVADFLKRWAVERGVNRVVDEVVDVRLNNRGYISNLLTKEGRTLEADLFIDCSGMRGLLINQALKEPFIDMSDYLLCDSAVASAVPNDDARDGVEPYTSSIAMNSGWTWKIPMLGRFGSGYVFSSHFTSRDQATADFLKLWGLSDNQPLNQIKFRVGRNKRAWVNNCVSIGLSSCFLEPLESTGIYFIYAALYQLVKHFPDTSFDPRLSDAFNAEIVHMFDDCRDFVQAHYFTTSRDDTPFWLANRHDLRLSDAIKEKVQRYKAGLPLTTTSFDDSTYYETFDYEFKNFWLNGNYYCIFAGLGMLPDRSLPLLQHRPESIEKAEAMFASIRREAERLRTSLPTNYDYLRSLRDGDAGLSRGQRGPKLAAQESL

Molecule | net product formation 7-Cl-Trp (PrnA [1]; NADH mixture) | Net 7-Cl-Trp produced (PrnA [2]) | PrnC activity, conversion of MDA to APRN (PrnC) | net product formation 7-Cl-Trp (PrnA [1]; NADPH mixture)
B1 | 0.31 ± 0.11 nmol |  |  | 
B2 | 21.46 ± 1.02 nmol | 8.44 nmol | 51.8% | 
B3 |  | 0.11 nmol | 4.0% | 
B4 |  |  |  | 3.35 ± 0.23 nmol
B5 |  | 4.22 nmol | 1.8% | 
